Test results as given in the DeepSol protein solubility set.

Assay: soluble on expression in E. coli; label from the status in PepcDB or PDB records

Row | Sequence | soluble on expression in E. coli
1 | MSNDQLKSKLREFFDRQPDQSEKAHQDSKIFEVLYSQFLENQHCIDWNSWKFLEEKHQVTLKDLEPFDKSRFNILNKLAVIKLNGGLGTTMGCSKAKSLVEVREGYTFMDLAVLEHQKMCEAHNVDTPLYLMNSFYTDEDTKKYLAEKGYSNVKTFVQSKCPRLDAETKLPIEDENEDWGDDAWCPPGHGNIFQSLQNSGVLDQLLADGREIIFVSNIDNTGANTDLQIVQLMLDKNVDYIMECTPKTQVDVKGGTLIDIGGRMMHLEMPQVPAENLPDFCSTKVFKIFNTNNIYVNLKAVKKLLPDIKSEIIVNKKTIRSREVLQLEFSIGGCIKNFDNALCVHVERKRFRPVKNLGDLLSLRSTLCDLDHSTFKVHHNHELGAPPVISLDPSIYNSVEVVDLKFPHPLVMDNCSEFAVVGDVTFGKNVKLSGKVTVNGKTESPGVVPDGTVLKDQEYIAE | not soluble
2 | MKCIAIDDEPLALKQLTDYISRVPFLSLVKSCQDAFEAMKVLADEEIDLIFVDINMPDLNGLDFIRSLISRPMVVFTTAYSEYAVDGFKLDAVDYLLKPFEFQDLLKAADKARKQYEYRMLEQQGELGNSSQIKGDSLFVKSDYKVVRIDVKNIRYIEGMSEYVRIFIEGEDKPVITLASLQKMEERLPTYFMRVHRSYIVNLRKITEVSRLRIIFDRNTYIPVGDNYKERFAEHISKLSFS | not soluble
3 | GSSEEESFFVQVHDVSPEQPRTVIKAPRVSTAQDVIQQTLCKAKYSLSILSNPNPSDYVLLEEVVKDTTNKKTTTPKSSQRVLLDQECVFQAQSKWKGAGKFILKLKEQVQASREDK | soluble
4 | MQLSPKEFEYQFRCLYRPLNMYALRYTENLDDAEDIVQQAFSDVWEKLVGGTSIQNLKAYMYQTVRNRSLTLITNRQTHCETTELTDLEDLTEEERIIRSERDARLWTAIDHLPTERKKIFLLSKRDGLTYQEIATELGISIKTVEHQISKALKTLRETAIKIYTFFFG | not soluble
5 | MLKTPLYESHMAANAKMVDFSGWSMPINYGSQIQEHNNVREDCGIFDVSHMLAVDIQGSEAEKFLRYLLANDVAKLQENKAQYGCMLNHDAGIVDDLITYKVTDEHFRIVVNAGNRESDVAWFNQNAQNFDVAITPQTDLAIVAVQGPKAVAVIKRVVTKEIATEIEALLPFSFKFFSKWMVARTGYTGEDGFEVILPATQVKKFWDSLLENGAQPAGLGARDTLRLEAGMHLYGADMDTSTTPLERGLGWSVDLSDEHRDFIGKKAYFAKKAQGVDTKWVGVVLKTKGVLRAGQEIDFDNGEKGYITSGSFSPTLKVAIGLAYVPKQADNPVVNIRGKELEVELVKPKFVKNGKSLI | not soluble
6 | MPLSPLDIHNKEFTRGFRGYDEDEVNDFLDQIIKDYEQVIKEKKRIEDTLNNSEERLGHFTNIEETLNKSLIVAQTAAEEVKASAEKEAKLIIREAEKNADRILSDSLSKARKIAIEIEDLKRQSKVFRERLRMLVEAQMDLIKSEDWQQMMAYDVDATELASIKEVESAESEER | not soluble
7 | ASVKAVGRVCYSALPSQAHDTLDLIDEGGPFPYSQDGVVFQNREGLLPAHSTGYYHEYTVITPGSPTRGARRIITGQQWQEDYYTADHYASFRRVDFAC | soluble
8 | MAHHHHHHMKEEIPQLQNLERDLLKQRNKYLSKVGNLLNKDVVISNDEDNNKVVTTWGVCKRLEVITDESSEENKSGKGGSKDGGSNKREVPSSSSISGGVVHPNSSIEGKKYYYHFDLLRKIVGANFKKGIQVAGHRGYYFTGAGFFLHNAILQYAINFLVSKNYTPVYPPFFMKKNIMEECAELDDFEETLYKIASSGGNSTATTGTASGALVSKNLNQNDELSRDDLFLIATSEQPLCALHKDETIESKYLPLKYAGVSSCFRKEAGAHGKDIRGILRVHQFDKIEQFCLSLPQTSSKVHKQMMKTCEEFYQSLNIPYRIVSIVSGALNNAAAIKYDLEGYFPSSNQYRELVSCSNCTDYQSNNLNVKYVDSSVRITDVKEDRKKKENTGDHQDDDDDDEIGSDHEEFLKNFHTESRNNVHLLNGTMVAAQRFLCCLLENYQNGEGIVVPEKLRPYMNNVDFIPFIE | not soluble
9 | MMRIAVKEFLKIRRELKTLSDIRKLPYPRGTLHCILQQKKVDSVKRKYHTFAERIPEIISYWEREKKFPKWLTLPPVMKIRLLMKGMGFSAKSINKALRNPEDVVEDEKLAEQIRKAVLSDYVYSPIAARLQRARGKLGERGLAYELEKAGIEFLTEKDLKGRFSKTPDFYFEEPVEFMGEELKWIESKALFGDPRSHDLYWKKQYSKYYEMFGNGLIVYWLGCVESIEASDGSEFKNGYRTSLLDMLLYLTDSKDESYAERLNARFIEVNEQNDVLAAEKVVDAYAEGRVLAFTDRKREVARILKNMGFDVTLGQNYLTTLTANTLCHSPTANKAISLLSSLLCLINHPNLLLSAENPASLKFLLKYLFRNLLEHHHHHH | not soluble
10 | MTHLGGKVRSSGFLIPGSAPVSGTPPQGQGGLASSRVYEDSGGSLLSFSPMIHPNLAPLIAPSAYARLNLLNHCIFLEAFKEENSGQGLGGVQREVLFLKRDIIKQVIARIVAADSTLDLVNHGEPGREAPRRAQ | not soluble
11 | MKAMRYEQISENAFKGKIQVYLEQILGDASLILKTLHEKDQCLLCELDDLGHVFQDMQGIASSFYLQSYIEEFTPAFIELAKAIKALSEHKHGALIVIERADPVERFIQKGTSLHAEISSSLIESIFFPGNPLHDGALLVRENKLVSASNVLPLTTKEVDIHLGTRHLAALGMSGYTDALVLVVSEETGKMSFAKDGVLYPLISPRT | not soluble
12 | MEESRADGRNPNQLRPFSCTRNPLDRAHGSARWAQGDTIVLAAVYGPKPGTRKGENPEKASIEVVWKPMTGQIGKQEKEYEMTLKRTLQSICLLTVHPNTTTSVILQVVGNDGSLLPCAINACCAALVFAGIPLKHLAVAIGCGVLEDGEVILDTNKAEEQQLKSFAHLVFPNSRKSASSKEPNQKEEDSERGLITSITHGVMSEEDYFSCIERGLAASSRISDFMRTTLQKQAPGDVLEHHHHHH | soluble
13 | GMSSSDRYMQRGVSSQKEDVHKAIKSIDKGIYPRAFCKIIPDILGGDPEYCNIMHADGAGTKSSLAYVYWKETGDISVWKGIAQDAVIMNIDDLICVGAVDNILLSSTIGRNKNLIPGEVLAAIINGTEEVLQMLRDNGIGIYSTGGETADVGDLVRTIIVDSTVTCRMKRQDVISNENIKAGNVIVGFASYGQTSYETEYNGGMGSNGLTSARHDVFNNVLASKYPESFDPKVPENLVYSGEMNLTDPYLNVPLDAGKLVLSPTRTYAPLMKEIIHQYKGKLDGVVHCSGGGQTKVLHFTDATTHIIKDNLFDVPPLFQLIQGQSNTPWEEMYKVFNMGHRLEIYTDAAHAEGMIAIAKKFNIEAKIIGRVEAPVAGKRLTITGPQGTEYTYA | soluble
14 | MGSDKIHHHHHHMNSSQKRVLHVLSGMNRGGAETMVMNLYRKMDKSKVQFDFLTYRNDPCAYDEEILSLGGRLFYVPSIGQSNPLTFVRNVRNAIKENGPFSAVHAHTDFQTGFIALAARLAGVPVRVCHSHNTSWKTGFNWKDRLQLLVFRRLILANATALCACGEDAGRFLFGQSNMERERVHLLPNGIDLELFAPNGQAADEEKAARGIAADRLIIGHVARFHEVKNHAFLLKLAAHLKERGIRFQLVLAGDGPLCGEIEEEARQQNLLSDVLFLGTEERIHELMRTFDVFVMPSLYEGLPVVLVEAQASGLPCIISDSITEKVDAGLGLVTRLSLSEPISVWAETIARAAAAGRPKREFIKETLAQLGYDAQQNVGALLNVYNISTEKDHNR | not soluble
15 | MGHHHHHHSHPRRLAWCSIDWEQVCLLQRLGAGGFGSVYKATYRGVPVAIKQVNKCTKNRLASRRSFWAELNVARLRHDNIVRVVAASTRTPAGSNSLGTIIMEFGGNVTLHQVIYGAAGHPEGDAGEPHCRTGGQLSLGKCLKYSLDVVNGLLFLHSQSIVHLDLKPANILISEQDVCKISDFGCSEKLEDLLCFQTPSYPLGGTYTHRAPELLKGEGVTPKADIYSFAITLWQMTTKQAPYSGERQHILYAVVAYDLRPSLSAAVFEDSLPGQRLGDVIQRCWRPSAAQRP | not soluble
